# Source: the supplement of paper PMC12042874
# ± gives the uncertainty stated by the source.
# Assay: amyloid nucleation score (Sup35N fusion, yeast selection) (log enrichment); library NNK1; higher = more nucleation; inactive = no reads after selection
# Outline: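 Plasmid inserts were Illumina-sequenced at input and output from psi-negative yeast expressing Sup35N fused to peptides of 20 random codons. The yeast were induced with 100 μM copper sulfate for 24 hours and grown 7 days at 30°C on medium lacking adenine and uracil, and sequences with under 100 input reads were excluded. Nucleation score is the DiMSum log enrichment of output over input reads, centred on the mode score of non-aggregating sequences.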
row,Substance,amyloid nucleation score
1,CTSCQYKCNCWGCVRYQTWF,2.41 ± 0.27
2,VDNVRPWRGYQPHSLVLPIV,0.516 ± 0.47
3,LTWLL,0.992 ± 0.97
4,SNCFGSSIGNYFRYMFVAYW,1.86 ± 0.47
5,GLCTTCF,0.126 ± 0.64
6,DLAWWMSCAHFMSMTRGLQR,0.595 ± 0.36
7,CNLSNVSLLFRYELLISGSY,0.748 ± 0.35
8,FVVSDIMGDLRKM,1.38 ± 0.71
9,IQLILSSAEFFSLAGSREYR,2.43 ± 0.22
10,NSGFRAASS,2.02 ± 0.55
11,DAHAISINHYRLSQTLSVPW,-0.148 ± 0.35
12,FDVGSFTGIGV,0.115 ± 0.77
13,PECQSGCMV,-0.163 ± 0.41
14,DAASHYINLCNHSAEFSKVG,1.42 ± 0.53
15,NYMWSQPLLYFECGRDQWLA,2.92 ± 0.11
16,HWYVTVCLVSMCQVGKGKDN,3.5 ± 0.087
17,EHNNFFICVCWSAGTSVRMI,7.992 ± 0.063
18,MRGERVYSLRNNSHQ,-0.078 ± 0.33
19,IVQIIPGVCCA,0.311 ± 1.2
20,LRYVKSHSTMAFKLGATPGT,0.505 ± 0.66
21,YPNVRSTYGDHSLLSNVAKG,0.132 ± 0.66
22,LMLPMESAPKRLGEGVGPSR,0.233 ± 0.47
23,RIVKSGGFNR,-0.089 ± 0.39
24,PGGSIRGFSRLSKLHWDRGE,0.252 ± 0.4
25,RTCHSQICFSGRMYRLFVMI,0.41 ± 0.48
26,NCASLLGRFSDDLIDHLSVL,2.02 ± 0.62

row,Substance,amyloid nucleation score
1,VIHYSGLSMVAVQ,-0.379 ± 0.49
2,DDKITSLLVMSRDKVKPMSD,inactive
3,ALNFTYLVSSNKHRSED,5.12 ± 0.1
4,YWSVQG,0.647 ± 0.75
5,ELLFFYYMSSNCFVFISCSQ,1.59 ± 0.38
6,VNDYWNFCYVCWKYQSIILY,3.14 ± 0.18
7,YYTCSSETM,0.811 ± 0.39
8,IAGIEGPI,-0.182 ± 1.3
9,FVVGSRFMKIHVSGGDLGFF,-0.144 ± 0.39
10,DVVTSGILTASSRWYVRRGR,-0.729 ± 1.2
11,RFCRSIAFA,0.237 ± 0.32
12,SCYVLVMYCYDMSFCDTLCE,0.024 ± 0.47
13,HVHVTACCRLM,7.44 ± 0.077
14,FTSLWDCALTHVVTFPAILG,-1.36 ± 1.8
15,WYRLFALIGLAYLH,0.586 ± 0.56
16,GNRSSS,inactive
17,NNKKNY,-0.505 ± 0.27
18,YYIMYYAGSFIRGEMVHRLT,-0.581 ± 0.32
19,RISNRCSCSCNFDQGGVRQP,0.394 ± 1.1
20,FDANGVCSSITSCM,-0.359 ± 0.53
21,CMYALT,0.015 ± 0.39
22,VVMRPIFYGNSWLVRPLRNM,-0.272 ± 0.45
23,YRGTLDNKMGFYIGYHHDRS,-0.322 ± 0.56
24,LVWISVL,0.163 ± 0.32
25,PYWTVYGELL,0.116 ± 0.97
26,GTTDIFFLLILFFQVVN,1.14 ± 0.73

row,Substance,amyloid nucleation score
1,AFCNVADCNIRGSWLVRLRR,1.21 ± 0.41
2,VFHAAVM,-0.192 ± 0.93
3,VFVHFVSQWDFEATWT,0.27 ± 0.71
4,FESTPLVGHTRASSRYCARF,-0.742 ± 2.1
5,LVRRRSKSRVRVPFLRLSMR,-0.415 ± 0.72
6,NTDLTNRSDYLYIV,-1.78 ± 1.2
7,REIIGRLLSVRTSLAEYNSG,-0.514 ± 0.91
8,LKSDMIADTTAL,2.67 ± 0.12
9,SSGFTLTSVRMGEMSTANNG,1.1 ± 0.66
10,MIHVFLGETYLVIFAVNFST,inactive
11,DTLDLQLRNVRLTRACMAQY,0.329 ± 0.34
12,WFRIKGTGTLTPLKQHYSIN,-0.355 ± 0.56
13,NFPFMFKCSPGNVHLVDIR,-0.535 ± 1.7
14,SRFDGTNIVCSSGMWFCAWK,8.35 ± 0.045
15,SSQDYAHSIAGLVYGC,-0.137 ± 0.98
16,NGRLMVGMLHV,0.719 ± 0.56
17,LRIPFTSWRYDNEMAVTGSG,0.394 ± 0.84
18,DCKAYSIRSNV,0.705 ± 0.36
19,YLWADTRCLTGVW,0.413 ± 1.1
20,EFIKWRAIGENSYGKGDMDR,0.387 ± 1
21,HHSRIFICDLRWSSTVRHCK,1.39 ± 0.16
22,QAELYPDQNRGCVGLVVPAD,-0.544 ± 0.54
23,GFYSLHTALARIPHEHAVFF,-0.018 ± 0.61
24,TLLYICSRNTKFNGLMWLGL,0.935 ± 0.21
25,FRCYVFANCD,1.59 ± 0.4
26,GGSRTIVP,0.411 ± 0.48

row,Substance,amyloid nucleation score
1,FLRLAWGFLIMHEIRYAGWS,0.413 ± 1.2
2,KYEMRITVGRGYFSGRMHAC,0.494 ± 0.78
3,LFATYLAFKFY,-0.356 ± 1
4,PTLMLAGG,-0.33 ± 0.46
5,SKCVSIMAS,inactive
6,CRCTVNHVMVRLSRGCRDAH,inactive
7,SEYLASMAVTRFLGIGWMNS,0.548 ± 0.57
8,YSCPNLIWA,-0.424 ± 0.38
9,TSPPSKIAVRCGWDSMSLR,0.309 ± 0.6
10,VLTFPLFCIGKLIKN,6.033 ± 0.045
11,GYRTLLS,0.372 ± 1.4
12,VMLSSSGYELHVWRVGGSDG,0.093 ± 0.75
13,DKWRVRCCRFWLT,0.191 ± 0.29
14,MKIGIGVFRDREGNSGWL,-0.741 ± 1.4
15,NNIVLDFLFGVSLHRFGPHH,4.43 ± 0.14
16,RCEVESIRNGLAKAGSVTMR,0.515 ± 0.38
17,RQTGVYCKFNRSRDSILLSH,-0.782 ± 0.86
18,RYHPMG,-0.074 ± 0.93
19,QAVGSI,0.031 ± 0.33
20,ALCYWNSTVD,-0.057 ± 0.41
21,GSKTRAKLSLGCPKFLDAKG,0.457 ± 0.73
22,RIWPRSMYRPSSGCVET,-0.281 ± 0.52
23,VMYPRATLSQLRLKVTN,-0.116 ± 0.4
24,KIILPVSGVKINMQAWSRSH,4.07 ± 0.091
25,LLCWRYFSCSYFLECVGSTS,-1.14 ± 0.86
26,SNDCRMLWMIWKTGSACLDP,0.271 ± 0.43

row,Substance,amyloid nucleation score
1,CLVHVRVSHNWDVTMMFGVR,0.555 ± 0.24
2,AMQKESRGTWGSVTAQVHGM,0.304 ± 0.59
3,PSIEEEFSWVPAVFFFTWDM,-0.706 ± 1.2
4,NNGPIPNILKEL,0.523 ± 0.41
5,FCRGKPRRLVP,-0.219 ± 0.67
6,YPSVLRINTTFASDLTG,0.894 ± 0.3
7,AFLMMSTVAPTLWMIMPSYS,0.446 ± 0.48
8,LPTHHCGLNVSSDGSNSELR,0.068 ± 0.46
9,IVGLQAVENIRNSCICLFMK,4.5 ± 0.065
10,DFCLNGSYFNTLDNSGCSSL,-0.114 ± 0.52
11,SVLNSDCNCGIKSWFTDIIM,1.96 ± 0.4
12,NSSSIQVANRARDV,inactive
13,SFRIVLLPPF,2.64 ± 0.26
14,APMHINLWRDGTNVGQDWVV,1.88 ± 0.69
15,FMCTINKFLYTVACPWHYLP,3.96 ± 0.16
16,RVGYH,-0.135 ± 0.35
17,DRRKAPGLMNAMD,0.737 ± 0.97
18,YERVRPGAIHFRIETI,0.146 ± 0.53
19,RHVGVAGFRFLPGPCDWPAR,3.94 ± 0.14
20,FNYIFRWLVMGTGSCTGS,0.45 ± 0.29
21,QFAHKVYPMSSCLVNVA,-0.678 ± 0.57
22,WVLKL,0.916 ± 0.54
23,FWATRVTWLDEMLIYYCLVN,0.155 ± 0.36
24,ACLSNGKWKYPLGYESSLRR,-0.968 ± 1.1
25,GRLVVIAYQMQSCDSTMD,-0.115 ± 0.42
